Results from PMC5457521 (Nature Communications, 2017).

B1: anti-EDE2 mAb 747(4)A11, human IgG (antibody, V domains shown)
VH: EVQLVESGGGLVRPGGSLRLSCAASGFSYSNHWMHWVRQAPGKGLVWVSRINSDGSTRNYADFVKGRFTISRDNAENTLYLEMNSLTADDTAVYYCVRDGVRFYYDSTGYYPDSFFKYGMDVWGQGTTVTVSS
VL: QSVLTQPVSVSGSPGQSITISCTGTSSNADTYNLVSWYQQRPGKAPKLMIYEGTKRPSGVSNRFSASKSATAASLTISGLQPEDEADYYCCSYATSRTLVFGGGTKLTVV
B2: anti-EDE2 mAb 747(4)B7, human IgG (antibody, V domains shown)
VH: EVQLVESGGGLVQPGGSLKLSCAASGFTFSSHWMHWVRQAPGKGLVWVSRTNSDGSSTSYADSVKGRFMISRDNSKNTVYLHMNGLRAEDTAVYFCARDGVRYYYDSTGYYPDNFFQYGLDVWGQGTTVTVSS
VL: QSALTQPASVSGSPGQSITISCTGISSDVETYNLVSWYEQHPGKAPKLIIYEASKRPSGVSNRFSGSKSGNTASLAISGLQAEDEADYYCCSYAGGKSLVFGGGTRLTVL
B3: anti-EDE2 Fab A11 (Fab of human mAb 747(4)A11) (Fab, V domains shown)
VH: B1 VH
VL: B1 VL

Legend:
[1] = target: T1, DENV2 sE strain FGA02, wild type (recombinant E ectodomain) (Dengue virus 2, strain FGA-02 …, strain); assay: ELISA; capture ELISA: mAb coated at 5 μg ml^−1 on MAXISORP plates; serial dilutions of Strep-tagged sE in solution; ALP-labelled Strep-Tactin; conditions: one partner purified
T1 construct: also called sE WT; DENV2 FGA02 WT

[2] = target: T1, DENV2 sE strain FGA02, wild type …; assay: SEC-MALS; mixture of 150 μg DENV2 FGA02 sE with 300 μg Fab, Superdex 200 10/300 GL, run in a similar manner as sE alone; conditions: both partners purified

Row | Binder | binding result [1] | binding result [2]
1 | B1 | binds | –
2 | B2 | binds | –
3 | B3 | – | binds
